Test results as given in patent US20220073608A1 (JIANGSU HUAIYU PHARMACEUTICAL, published 2022).

T1: human SEMA4D, full length, on CHO-K1 cells (CHO-K1 hSEMA4D) (human, UniProt Q92854 22-862)
T1 construct: whole, on cells; also called human SEMA4D recombinant cells
T1 sequence (looked up): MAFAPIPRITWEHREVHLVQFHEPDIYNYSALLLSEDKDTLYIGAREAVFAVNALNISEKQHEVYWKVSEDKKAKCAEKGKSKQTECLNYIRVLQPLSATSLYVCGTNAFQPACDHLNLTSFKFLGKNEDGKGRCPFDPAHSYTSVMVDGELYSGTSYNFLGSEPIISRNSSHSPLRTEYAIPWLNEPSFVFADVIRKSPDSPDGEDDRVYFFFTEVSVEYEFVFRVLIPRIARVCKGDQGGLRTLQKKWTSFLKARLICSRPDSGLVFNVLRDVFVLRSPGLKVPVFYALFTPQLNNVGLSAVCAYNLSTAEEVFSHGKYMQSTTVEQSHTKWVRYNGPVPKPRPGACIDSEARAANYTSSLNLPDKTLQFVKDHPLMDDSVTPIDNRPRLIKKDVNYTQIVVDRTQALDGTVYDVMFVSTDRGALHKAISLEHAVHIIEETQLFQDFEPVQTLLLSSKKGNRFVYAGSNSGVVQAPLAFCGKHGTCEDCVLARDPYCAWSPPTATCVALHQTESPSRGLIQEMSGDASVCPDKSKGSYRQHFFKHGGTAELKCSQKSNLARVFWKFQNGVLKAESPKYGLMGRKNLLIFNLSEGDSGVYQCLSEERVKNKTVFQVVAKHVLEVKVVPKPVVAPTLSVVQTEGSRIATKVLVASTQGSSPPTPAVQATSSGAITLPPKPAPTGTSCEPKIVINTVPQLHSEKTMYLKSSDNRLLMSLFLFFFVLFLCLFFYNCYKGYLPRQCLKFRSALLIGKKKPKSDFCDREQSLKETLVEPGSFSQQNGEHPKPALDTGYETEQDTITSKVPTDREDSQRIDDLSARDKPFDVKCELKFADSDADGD

T2: hSEMA4D ECD-His (His-tagged human SEMA4D protein extracellular domain, Met22-Arg734) (human, UniProt Q92854 22-734)
T2 construct: Expressed in CHO-S cells, purified on Ni column; also called protein immunogen; immunogen A; not shown: His tag of the pCP vector
T2 sequence: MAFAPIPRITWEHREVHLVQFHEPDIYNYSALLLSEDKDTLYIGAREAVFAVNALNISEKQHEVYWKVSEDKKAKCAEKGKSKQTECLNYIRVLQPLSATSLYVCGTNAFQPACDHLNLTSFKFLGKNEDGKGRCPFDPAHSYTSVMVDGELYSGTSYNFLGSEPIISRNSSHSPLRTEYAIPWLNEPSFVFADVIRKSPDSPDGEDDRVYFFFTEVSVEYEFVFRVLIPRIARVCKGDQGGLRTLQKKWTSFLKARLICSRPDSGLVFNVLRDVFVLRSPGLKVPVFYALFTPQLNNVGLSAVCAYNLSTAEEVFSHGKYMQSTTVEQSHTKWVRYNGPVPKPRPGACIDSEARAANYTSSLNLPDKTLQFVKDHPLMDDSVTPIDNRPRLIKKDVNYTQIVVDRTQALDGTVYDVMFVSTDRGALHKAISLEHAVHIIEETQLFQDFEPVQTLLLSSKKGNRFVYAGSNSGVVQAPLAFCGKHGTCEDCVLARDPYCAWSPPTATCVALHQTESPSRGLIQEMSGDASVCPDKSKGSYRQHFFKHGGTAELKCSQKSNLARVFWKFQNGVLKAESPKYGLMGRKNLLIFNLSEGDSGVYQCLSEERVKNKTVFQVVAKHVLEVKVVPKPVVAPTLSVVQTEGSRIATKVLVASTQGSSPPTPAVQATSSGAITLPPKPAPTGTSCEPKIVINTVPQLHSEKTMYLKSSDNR


Assays:
[1] = molecular target: T1, human SEMA4D, full length, on CHO-K1 …; test: FACS, CHO-K1 hSEMA4D cells; Ab 0.107 nM
Method: The medium was aspirated, the cells were washed once with PBS buffer (purchased from Invitrogen), and then treated with cell dissociation fluid (TrypLE™ Express Enzyme, purchased from Life technology), and the cells were collected. After the cells counted, the cells were washed once with PBS phosphate buffer, and diluted to 3×10⁶ cells per milliliter, and added to the 96-well FACS reaction plate as 100 μL per well. 2% (w/w) fetal calf serum was added to PBS phosphate buffer as FACS buffer, with which the cells were washed once by centrifugation at 2000 rpm 4° C. 100 μL of diluted and purified leading antibodies was added to each well and the plate was incubated for 1 hour on ice. […] Cells were washed 2 times by centrifugation with FACS buffer. The cells were suspended with 200 μL of FACS buffer, and FACS (FACS Verse, purchased from BD) was used to detect and analyze the results.

[2] = molecular target: T2, hSEMA4D ECD-His (His-tagged human …); test: ELISA, coated hSEMA4D ECD-His; Ab 0.267 nM
Method: First, hSEMA4D ECD-His was diluted with PBS to a final concentration of 1.0 μg/mL, and then was added to a 96-well ELISA plate, 100 μL per well, sealed with plastic film and incubated overnight at 4° C. On the next day, the plate was washed with a plate washing solution, that is, PBS buffer containing 0.05% (v/v) Tween20, for 4 times, and added with blocking solution, that is, PBS buffer containing 0.05% (v/v) Tween20 and 2% (w/w) BSA, blocked at 37° C. for 1 hour. The blocking solution was poured out and the plate was washed 4 times with the plate washing solution. 100 μL of the purified leading antibodies obtained in Examples 1 and 2 was added to each well. After incubation at 37° C. for 1 hour, the plate was washed 4 times with a plate washing solution. 100 μL of horseradish peroxidase (HRP) labeled secondary antibody (purchased from Sigma) was added at a dilution of 1:10000 to each well, and the plate was incubated at 37° C. for 1 hour, and washed 4 times with a plate washing solution. 100 μL TMB substrate was added to each well, and the plate was incubated at room temperature for 5 minutes, and added with 100 μL stop solution (1.0N HCl) to each well. A microplate reader (SpectraMax M5e, purchased from Molecular Device) was used to read the A450 nm value. […] Wherein, the data in the table was the OD450 nm value.

MFI [1]	OD450 nm [2]	Binder
598	1.4	42B7G2 (antibody, V domains shown, Mouse monoclonal antibody purified from hybridoma supernatant on protein A) VH: QVQLQQSGAELARPGASVKLSCKASGYTFTDYGISWVKQRTGQGLEWIGEIYLRNDNSYYNEKFKGKATLTADKSSNTAYMELRSLTSEDSAVYFCARWGDHGNNYEDAMDYWGQGTSVTVSS VL: DIVLTQSPASLAMSLGKRATISCRASESVSIIGSNLIHWYQQKPGQPPKLLIYHASNLETGVPARFSGSGSRTDFTLTIDPVEEDDVAIYYCLQSRKVPYTFGGGTKLEIK
832	1.28	32C8F10 (antibody, V domains shown, Mouse monoclonal antibody purified from hybridoma supernatant on protein A) VH: EVQLQQSGAELVRPGASVKLSCTASGFNIKDEYIHWVKQRPEQGLEWIGWIDPANGHTEYASRFQAKATITADTSSNTAYLQLSSLTSEDTAVYYCTTGDYDGFAYWGQGTLVTVST VL: QIVLTQSPAIMSASPGEKVTISCSARSSVSYMYWYQQKPGSSPKPWIYRTSNLASGVPARFSGSGSGTSYSLTISSMEAEDAATYYCQHYHTYPYTFGGGTKLEIK
855	1.15	31G10C5 (antibody, V domains shown, Mouse monoclonal antibody purified from hybridoma supernatant on protein A) VH: EVQLQQSGAELVRPGASVKLSCTASGFNIKDDYIHWVKQRPEQGLEWIGWIDPANGHIEYASNFQAKATITADTSSNTAYLQLSSLTSEDTAVYYCTTGDYDGFTYWGQGTLVTVST VL: QIVLTQSPAIMSASPGEKVTISCSARSSVSYMYWYQQKPGSSPKPWIYRTSNLASGVPARFSGSGSGTSYSLTISSMEAEDAATYYCQHYHTYPYTFGGGTKLEIK
906	1.47	31C11G2 (antibody, V domains shown, Mouse monoclonal antibody purified from hybridoma supernatant on protein A) VH: EVQLQQSGAELVRPGASVKLSCTASGFNIKDEYIHWVKQRPEQGLEWIGWIDPANGHTEYASRFQAKATITADTSSNTAYLQLSSLTSEDTAVYYCTTGDYDGFVYWGQGTLVTVST VL: QIVLTQSPAIMSASPGEKVTIFCSARSSVSYMYWYQQKPGSSPKPWIYRTSNLASGVPARFSGSGSGTSYSLTISSMEAEDAATYYCQHYHTYPYTFGGGTKLEIK
308	0.89	37F11F9 (antibody, V domains shown, Mouse monoclonal antibody purified from hybridoma supernatant on protein A) VH: EVQLQQSGPVLVKPGASVKMSCKASGYTFTDYYMNWVKQSHGKSLEWIGLINPYSGGSTFNQKFKAKATLTVDKSSSSAYMDLNSLTSEDSAVYYCARVGDGYYGVTHGMDYWGQGTSVTVSS VL: DIVMTPSQKFMSTTVGDRVSITCKASQNVGTAVAWYQQKPGQSPTILIYSASNRYTGVPDRFTGSGSGTDFTLTISNMKSEDLADYFCQQYYIYPFTFAAGTKLELK
210	0.41	37C4F7 (antibody, V domains shown, Mouse monoclonal antibody purified from hybridoma supernatant on protein A) VH: EFQLQQSGPEVVKPGASVKISCKASGYSFTDYNMNWMKQSKGKSLEWIGVINPNYGTTTYNQNFKGKATLTVDQSSSTAYMQLNSLTSEDSAVYYCARDMYYVYAYYTMDYWGQGTSVTVSS VL: DVVMTQTPLSLPVSLGDQASISCRSSQSLVHSNGHTYLHWYLQRPGQSPTLLIYKVSNRFSGVPDRFSGSGSGTDFTLKISRVEAEDLGVYFCSQGTHVPWTFGGGTKLEIK
215	0.531	38H2E3 (antibody, V domains shown, Mouse monoclonal antibody purified from hybridoma supernatant on protein A) VH: EFQLQQSGPEVVKPGASVKISCKASGYSFTDYNMNWMKQSKGKSLEWIGVISPDYGTTTYNQNFKDKATLTVDQSSSTAYMQLNSLTSEDSAVYYCAKDMYYVYAYYTMDYWGHGTSVTVSS VL: DVVMTQTPLSLPVSLGDQASISCRSSQSLVHSNGHTYLHWYLQRPGQSPTLLIYKVSNRFSGVPDRVSGSGSGTDFTLKISRVEAEDLGVYFCSQGTHVPRTFGGGTKLEIK
